3 molecules from patent US20220348609A1 (University of Washington, published 2022) can be followed below.

The term Kd denotes the equilibrium constant for the complex coming apart.

In assay [1] the target is T1, human αvβ6 integrin, soluble protein (biotinylated for yeast display; in solution for BLI) (human, UniProt P06756 31-992; P18564 22-707, limits assumed, biotinylated in the yeast display experiments (site not stated)).
T1 construct: also called avb6; alpha(v) beta (6) integrin
In words: binding assay not named.

Assay [2] deals with T2, human αvβ6 integrin on cells (A431 carcinoma cells; K562 cells stably transfected with αvβ6) (human, UniProt P06756 31-1048; P18564 22-788). The assay is described as follows: cell-based or functional assay.
T2 sequence (P06756 31-1048, chain 1 of 2): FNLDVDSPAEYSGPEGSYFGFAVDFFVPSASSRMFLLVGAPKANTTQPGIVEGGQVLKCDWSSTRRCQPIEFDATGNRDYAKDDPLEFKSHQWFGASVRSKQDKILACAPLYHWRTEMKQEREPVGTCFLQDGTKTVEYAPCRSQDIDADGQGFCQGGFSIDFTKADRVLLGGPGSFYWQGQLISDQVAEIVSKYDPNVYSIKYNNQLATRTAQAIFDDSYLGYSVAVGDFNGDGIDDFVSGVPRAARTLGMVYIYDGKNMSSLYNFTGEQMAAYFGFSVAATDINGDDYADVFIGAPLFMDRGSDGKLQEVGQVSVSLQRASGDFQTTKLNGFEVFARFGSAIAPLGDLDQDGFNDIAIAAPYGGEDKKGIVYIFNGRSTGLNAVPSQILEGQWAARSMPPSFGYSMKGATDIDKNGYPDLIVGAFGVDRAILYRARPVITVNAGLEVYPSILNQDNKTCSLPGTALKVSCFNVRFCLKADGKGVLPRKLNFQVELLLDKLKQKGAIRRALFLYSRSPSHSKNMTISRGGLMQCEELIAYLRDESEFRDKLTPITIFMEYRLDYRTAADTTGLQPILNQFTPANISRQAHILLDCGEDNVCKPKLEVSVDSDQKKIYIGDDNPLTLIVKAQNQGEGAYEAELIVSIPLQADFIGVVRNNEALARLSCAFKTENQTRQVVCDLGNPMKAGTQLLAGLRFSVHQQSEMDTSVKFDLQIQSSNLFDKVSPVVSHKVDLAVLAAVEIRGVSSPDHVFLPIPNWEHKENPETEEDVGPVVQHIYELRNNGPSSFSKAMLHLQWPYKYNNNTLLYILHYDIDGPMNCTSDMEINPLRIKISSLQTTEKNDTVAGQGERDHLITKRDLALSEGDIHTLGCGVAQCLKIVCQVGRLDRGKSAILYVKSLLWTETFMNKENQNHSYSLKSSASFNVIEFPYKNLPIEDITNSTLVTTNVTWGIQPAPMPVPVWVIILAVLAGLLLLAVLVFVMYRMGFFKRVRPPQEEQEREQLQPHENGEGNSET
T2 sequence (P18564 22-788, chain 2 of 2): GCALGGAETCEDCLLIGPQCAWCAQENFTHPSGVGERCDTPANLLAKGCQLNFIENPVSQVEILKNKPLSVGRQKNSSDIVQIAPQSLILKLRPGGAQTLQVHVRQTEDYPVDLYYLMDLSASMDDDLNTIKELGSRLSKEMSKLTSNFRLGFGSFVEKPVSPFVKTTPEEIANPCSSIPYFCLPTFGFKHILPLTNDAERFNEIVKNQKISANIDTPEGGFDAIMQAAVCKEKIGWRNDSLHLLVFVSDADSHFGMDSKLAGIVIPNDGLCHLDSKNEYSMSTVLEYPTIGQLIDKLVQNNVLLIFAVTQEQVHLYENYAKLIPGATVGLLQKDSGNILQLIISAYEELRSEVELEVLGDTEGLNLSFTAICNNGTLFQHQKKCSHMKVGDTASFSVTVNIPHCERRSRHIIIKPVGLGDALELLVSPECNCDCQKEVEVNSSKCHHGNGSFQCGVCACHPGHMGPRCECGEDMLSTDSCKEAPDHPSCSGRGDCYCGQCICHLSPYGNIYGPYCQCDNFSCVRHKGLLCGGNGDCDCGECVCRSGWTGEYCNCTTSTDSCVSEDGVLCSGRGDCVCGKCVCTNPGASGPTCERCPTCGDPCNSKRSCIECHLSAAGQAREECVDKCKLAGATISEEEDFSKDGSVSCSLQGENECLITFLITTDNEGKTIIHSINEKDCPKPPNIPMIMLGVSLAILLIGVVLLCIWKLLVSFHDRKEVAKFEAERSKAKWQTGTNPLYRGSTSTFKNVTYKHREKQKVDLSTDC
In assay [3] the target is T3, αvβ1 integrin on stably transfected K562 cells (UniProt P06756 31-1048; P05556 21-798, limits assumed).
T3 construct: whole, on cells; also called avb1; alpha(v) beta (1) integrin
The assay is described as follows: cell surface binding on stably transfected K562 cells.

The target in assay [4] is T4, αvβ3 integrin on stably transfected K562 cells (UniProt P06756 31-1048; P05106 27-788, limits assumed).
T4 construct: whole, on cells; also called avb3; alpha(v) beta (3) integrin
T4 sequence (P06756 31-1048 limits assumed, chain 1 of 2): as the sequence (P06756 31-1048, chain 1 of 2) above
T4 sequence (P05106 27-788 limits assumed, chain 2 of 2): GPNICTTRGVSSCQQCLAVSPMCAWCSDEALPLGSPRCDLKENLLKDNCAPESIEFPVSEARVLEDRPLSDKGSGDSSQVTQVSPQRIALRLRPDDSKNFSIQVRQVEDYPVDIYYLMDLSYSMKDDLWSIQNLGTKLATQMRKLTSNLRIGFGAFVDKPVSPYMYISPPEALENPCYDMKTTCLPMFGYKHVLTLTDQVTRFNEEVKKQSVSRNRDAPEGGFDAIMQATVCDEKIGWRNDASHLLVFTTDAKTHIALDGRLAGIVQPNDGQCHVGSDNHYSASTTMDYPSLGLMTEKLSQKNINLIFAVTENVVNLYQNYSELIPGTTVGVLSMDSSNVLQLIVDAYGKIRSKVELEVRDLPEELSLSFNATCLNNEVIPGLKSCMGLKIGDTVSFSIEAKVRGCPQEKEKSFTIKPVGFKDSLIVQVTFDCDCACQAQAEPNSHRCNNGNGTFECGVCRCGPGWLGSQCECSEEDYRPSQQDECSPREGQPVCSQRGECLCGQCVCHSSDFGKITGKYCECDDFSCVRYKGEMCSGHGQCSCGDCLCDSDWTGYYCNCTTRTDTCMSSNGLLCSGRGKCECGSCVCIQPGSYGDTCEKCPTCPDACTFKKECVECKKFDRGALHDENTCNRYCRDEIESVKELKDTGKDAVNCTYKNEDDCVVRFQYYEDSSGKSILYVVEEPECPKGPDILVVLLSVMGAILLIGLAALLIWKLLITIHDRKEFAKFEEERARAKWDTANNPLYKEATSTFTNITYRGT
Described as above.

Assay [5] deals with T5, αvβ5 integrin on stably transfected K562 cells (UniProt P06756 31-1048; P18084 24-799, limits assumed).
T5 construct: whole, on cells; also called avb5; alpha(v) beta (5) integrin
T5 sequence (P06756 31-1048 limits assumed, chain 1 of 2): as the sequence (P06756 31-1048, chain 1 of 2) above
T5 sequence (P18084 24-799 limits assumed, chain 2 of 2): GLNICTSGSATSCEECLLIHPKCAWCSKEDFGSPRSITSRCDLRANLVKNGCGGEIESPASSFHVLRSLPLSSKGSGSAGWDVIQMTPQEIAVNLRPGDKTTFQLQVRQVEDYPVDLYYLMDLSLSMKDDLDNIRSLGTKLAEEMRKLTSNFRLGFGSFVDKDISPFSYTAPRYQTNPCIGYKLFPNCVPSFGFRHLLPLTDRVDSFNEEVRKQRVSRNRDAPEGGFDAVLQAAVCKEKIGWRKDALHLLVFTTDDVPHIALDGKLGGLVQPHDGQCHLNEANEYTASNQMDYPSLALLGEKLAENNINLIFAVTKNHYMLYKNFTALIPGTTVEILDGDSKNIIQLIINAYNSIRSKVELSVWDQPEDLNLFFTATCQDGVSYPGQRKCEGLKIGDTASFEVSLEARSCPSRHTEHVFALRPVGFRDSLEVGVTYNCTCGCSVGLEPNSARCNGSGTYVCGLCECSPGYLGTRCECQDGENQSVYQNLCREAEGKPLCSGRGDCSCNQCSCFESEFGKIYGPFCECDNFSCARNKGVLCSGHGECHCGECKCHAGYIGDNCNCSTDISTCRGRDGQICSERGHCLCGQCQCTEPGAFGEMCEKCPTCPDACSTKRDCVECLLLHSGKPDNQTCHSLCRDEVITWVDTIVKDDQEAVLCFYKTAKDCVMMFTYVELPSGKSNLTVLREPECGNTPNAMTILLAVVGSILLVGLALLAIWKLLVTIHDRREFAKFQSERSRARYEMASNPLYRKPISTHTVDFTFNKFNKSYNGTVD
Described as above.

Assay [6] addresses T6, α5β1 integrin on stably transfected K562 cells (UniProt P08648 42-1049; P05556 21-798, limits assumed).
T6 construct: whole, on cells; also called a5b1; alpha 5 beta 1
Described as above.

For assay [7], the target named is T7, α8β1 integrin on stably transfected K562 cells (UniProt P53708 39-1063; P05556 21-798, limits assumed).
T7 construct: whole, on cells; also called a8b1; alpha 8 beta 1
The description is as above.

Assay [8] deals with T8, αiibβ3 integrin on stably transfected K562 cells (UniProt P08514 32-1039; P05106 27-788, limits assumed).
T8 construct: whole, on cells; also called aiibb3; alpha (iib) beta (3) integrin
The description is as above.

Assay [9] has as its target T1, human αvβ6 integrin, soluble protein …. The assay is described as follows: BLI (Octet RED96), His-tagged binder on Ni-NTA sensor, αvβ6 in solution. The protocol: (§1) Data was collected on an Octet™ RED96 (Forte Bio) and processed using the instrument's software. His Tagged protein binders were immobilized on Ni-NTA octet sensors. The tips are then dipped into wells containing different concentrations of αᵥβ₆. Association and dissociation steps were recorded for 900 s and 1200 s respectively. An empty sensor with no loaded binding protein was included to discard any non-specific binding of αᵥβ₆ to the octet tip.
For orientation: BLI is a label-free optical method that tracks binding on a fibre tip over time.

Assay [10] shares this target. The assay is described as follows: BLI titration of purified protein against αvβ6 (FIG. 2f,g); BLI, purified BP1 against αvβ6. How it is done: as §1
Assay [11] deals with T9, human αvβ8 integrin on cells (K562 cells stably transfected with αvβ8; HeLa b8 cells in the TMLC assay) (human, UniProt P06756 31-1048; P26012 43-769).
T9 construct: whole, on cells; also called avb8; alpha(v) beta (8) integrin
In words: cell surface titration on K562 cells stably transfected with αvβ8; K562 cells with αvβ8; BP1 lacking A39K.

Assay [12] deals with T2, human αvβ6 integrin on cells (A431 …). In words: cell surface binding assay on K562 cells stably expressing αvβ6/αvβ8; reference αvβ8.
Assay [13] deals with T1, human αvβ6 integrin, soluble protein …. The assay is described as follows: BLI titration of purified protein against αvβ6 (FIG. 2f,g); BLI, purified BP2 against αvβ6. How it is done: as §1

T1 sequence (P06756 31-992 limits assumed, chain 1 of 2): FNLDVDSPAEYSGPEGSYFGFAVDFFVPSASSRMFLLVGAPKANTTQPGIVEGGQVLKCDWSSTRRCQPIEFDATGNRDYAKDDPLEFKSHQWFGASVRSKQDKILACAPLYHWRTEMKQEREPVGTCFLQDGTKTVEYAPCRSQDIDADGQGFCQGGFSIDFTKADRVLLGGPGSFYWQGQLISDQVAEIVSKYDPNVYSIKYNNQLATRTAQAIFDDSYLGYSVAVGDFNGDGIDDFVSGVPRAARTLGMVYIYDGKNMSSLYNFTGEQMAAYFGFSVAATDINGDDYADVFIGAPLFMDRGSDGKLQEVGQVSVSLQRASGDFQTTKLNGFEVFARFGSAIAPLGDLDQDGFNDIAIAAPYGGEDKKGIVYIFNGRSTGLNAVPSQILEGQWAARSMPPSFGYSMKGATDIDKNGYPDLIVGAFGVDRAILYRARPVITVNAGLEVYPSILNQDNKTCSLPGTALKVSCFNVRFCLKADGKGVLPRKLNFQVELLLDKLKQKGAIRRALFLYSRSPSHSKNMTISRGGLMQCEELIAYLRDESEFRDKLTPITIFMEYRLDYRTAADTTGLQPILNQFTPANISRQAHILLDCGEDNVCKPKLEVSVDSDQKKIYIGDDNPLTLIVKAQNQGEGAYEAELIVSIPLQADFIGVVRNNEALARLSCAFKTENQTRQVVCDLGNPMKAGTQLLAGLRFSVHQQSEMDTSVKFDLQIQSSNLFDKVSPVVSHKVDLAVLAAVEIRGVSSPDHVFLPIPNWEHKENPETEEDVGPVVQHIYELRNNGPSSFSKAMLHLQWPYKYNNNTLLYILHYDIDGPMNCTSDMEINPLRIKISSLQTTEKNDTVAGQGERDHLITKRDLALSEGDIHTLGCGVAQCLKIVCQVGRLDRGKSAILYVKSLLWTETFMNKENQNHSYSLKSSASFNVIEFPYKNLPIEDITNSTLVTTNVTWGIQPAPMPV
T1 sequence (P18564 22-707 limits assumed, chain 2 of 2): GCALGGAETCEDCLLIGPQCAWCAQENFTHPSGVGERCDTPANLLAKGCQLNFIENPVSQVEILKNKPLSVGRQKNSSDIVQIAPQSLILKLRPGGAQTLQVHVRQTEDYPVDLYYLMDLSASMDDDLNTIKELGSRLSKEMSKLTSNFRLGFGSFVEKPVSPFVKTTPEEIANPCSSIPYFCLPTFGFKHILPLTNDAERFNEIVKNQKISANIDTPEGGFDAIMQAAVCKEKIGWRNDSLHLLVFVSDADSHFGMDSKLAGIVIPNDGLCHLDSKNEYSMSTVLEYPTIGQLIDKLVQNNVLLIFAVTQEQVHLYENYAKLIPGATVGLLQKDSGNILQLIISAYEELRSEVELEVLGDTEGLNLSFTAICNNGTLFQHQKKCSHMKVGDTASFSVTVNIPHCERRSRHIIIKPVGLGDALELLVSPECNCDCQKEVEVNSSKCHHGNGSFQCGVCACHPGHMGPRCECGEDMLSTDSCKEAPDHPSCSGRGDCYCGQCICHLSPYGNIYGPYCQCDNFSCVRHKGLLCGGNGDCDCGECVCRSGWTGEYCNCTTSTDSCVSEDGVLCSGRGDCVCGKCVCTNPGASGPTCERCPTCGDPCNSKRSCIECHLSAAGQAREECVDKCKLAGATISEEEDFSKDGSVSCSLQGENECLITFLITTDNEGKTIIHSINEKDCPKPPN

B1: BP2_disulf with knockout mutation of the RGD to KGE (designed binder)
chain: MTKCVVRFVFKGELAELMLRAVKDHLKKEGPHWNITSTNNGKELVVRGIHESDAKRIAKWVEKRFPRVHTETQCD
notes: if the listing entry starts with Met they are 11 and 13; also called KGE knockout of BP2_disulf
As for B1, the binding result in [1] is on record as “no binding”.

B2: BP1 (av6_3_E13T) (designed binder)
chain: MAVVRFVFRGDLATLMLRAVKDHLKKEGPHWNITSTNNGAELVVRGIHESDAKRIAKWVEKRFPGVHTETQQD
notes: also called BPI; not shown: C-terminal His tag (pET29b, NdeI/XhoI)
For B2, in assay [2], the “IC50 of the block of αvβ6 mediated TGF-β activation, TMLC luciferase reporter co-culture assay” value came out at 0.199 nM. Also, the binding result in assay [3], in [4], in assay [5], in assay [6], in [7] and in [8] was “no binding (tested: up to 200 nM)” in each case. In addition, the Kd was 0.334 nM in assay [9], less than 1 nM in assay [10] and roughly 7.3 nM in assay [11].

B3: BP2 (av6_3_A39KG64R) (designed binder)
chain: MAVVRFVFRGDLAELMLRAVKDHLKKEGPHWNITSTNNGKELVVRGIHESDAKRIAKWVEKRFPRVHTETQQD
notes: not shown: C-terminal His tag (pET29b, NdeI/XhoI)
For the molecule B3, the “IC50 of the block of αvβ6 mediated TGF-β activation, TMLC luciferase reporter co-culture assay” value in assay [2] stood at 0.151 nM. Moreover, the binding result in [3], in assay [4], in assay [5], in assay [6], in assay [7] and in [8] was “no binding (tested: up to 200 nM)” each time. In addition, the Kd is 0.414 nM in [9] and less than 1 nM in assay [13]. For the same molecule, the “fold specificity towards αvβ6 over αvβ8” value in assay [12] is greater than 5000 fold.
